Test results taken from article PMC9891525.

Biological target: SARS-CoV-2 Delta variant S1 protein (SARS-CoV-2)
Experiment: SPR

Substance: original monoclonal antibody REGN10987
- Kd: 0.9 nM
